Laboratory results reported in patent US20250154231A1.
Read-outs that look alike come from different tables or passages of the source.

Tests used:
Assay in all cases: cell-based or functional assay
[1] = biological target: SARS-CoV-2 spike (S) protein, Omicron BA.1.1 (SARS-CoV-2) (UniProt P0DTC2)
[2] = biological target: SARS-CoV-2 spike (S) protein, Omicron BA.1 (SARS-CoV-2) (UniProt P0DTC2)
[3] = biological target: SARS-CoV-2 Alpha (B.1.1.7) spike (S) protein (SARS-CoV-2) (UniProt P0DTC2)
[4] = biological target: SARS-CoV-2 Omicron BA.1 spike (S) protein of the live isolate (SARS-CoV-2) (UniProt P0DTC2)
[5] = biological target: SARS-CoV-2 spike (S) protein, Omicron BA.2 (SARS-CoV-2) (UniProt P0DTC2)
[6] = biological target: SARS-CoV-2 Omicron BA.1.1 spike (S) protein (SARS-CoV-2) (UniProt P0DTC2)
[7] = biological target: SARS-CoV-2 Omicron BA.1 spike (S) protein, pseudovirus construct (SARS-CoV-2) (UniProt P0DTC2)
[8] = biological target: SARS-CoV-2 Gamma (P.1) spike (S) protein (SARS-CoV-2) (UniProt P0DTC2)
[9] = biological target: SARS-CoV-2 Omicron BA.3 spike (S) protein (SARS-CoV-2) (UniProt P0DTC2)
[10] = biological target: SARS-CoV-2 Omicron BA.2 spike (S) protein, pseudovirus construct (SARS-CoV-2) (UniProt P0DTC2)
[11] = biological target: SARS-CoV-2 spike (S) protein, Victoria strain (SARS-CoV-2) (UniProt P0DTC2)
[12] = biological target: SARS-CoV-2 Omicron BA.3 spike (S) protein, pseudovirus construct (SARS-CoV-2) (UniProt P0DTC2)
[13] = biological target: SARS-CoV-2 Delta spike (S) protein (SARS-CoV-2) (UniProt P0DTC2)
[14] = biological target: SARS-CoV-2 spike (S) protein, Omicron BA.3 (SARS-CoV-2) (UniProt P0DTC2)
[15] = biological target: SARS-CoV-2 Victoria spike (S) protein (SARS-CoV-2) (UniProt P0DTC2)
[16] = biological target: SARS-CoV-2 spike (S) protein, Omicron BA.2.75 (SARS-CoV-2) (UniProt P0DTC2)
[17] = biological target: SARS-CoV-2 Beta spike (S) protein (SARS-CoV-2) (UniProt P0DTC2)
[18] = biological target: SARS-CoV-2 Omicron (BA.1) spike (S) protein, live virus isolate (SARS-CoV-2) (UniProt P0DTC2)
[19] = biological target: SARS-CoV-2 Gamma spike (S) protein (SARS-CoV-2) (UniProt P0DTC2)
[20] = biological target: SARS-CoV-2 Omicron BA.1 spike (S) protein of the pseudovirus (SARS-CoV-2) (UniProt P0DTC2)
[21] = biological target: SARS-CoV-2 Beta (B.1.351) spike (S) protein (SARS-CoV-2) (UniProt P0DTC2)
[22] = biological target: SARS-CoV-2 Omicron BA.2 spike (S) protein (SARS-CoV-2) (UniProt P0DTC2)
[23] = biological target: SARS-CoV-2 spike (S) protein, Omicron BA.4/5 (SARS-CoV-2) (UniProt P0DTC2)
[24] = biological target: SARS-CoV-2 Omicron BA.1.1 spike (S) protein, pseudovirus construct (SARS-CoV-2) (UniProt P0DTC2)
[25] = biological target: SARS-CoV-2 Omicron BA.4/5 spike (S) protein (SARS-CoV-2) (UniProt P0DTC2)
[26] = biological target: SARS-CoV-2 Alpha spike (S) protein (SARS-CoV-2) (UniProt P0DTC2)
[27] = biological target: SARS-CoV-2 spike (S) protein, Omicron BA.2 (SARS-CoV-2) (UniProt P0DTC2); remark: listed apart in the source
[28] = biological target: SARS-CoV-2 spike (S) protein, Omicron BA.2.75 (SARS-CoV-2) (UniProt P0DTC2); remark: listed apart in the source
[29] = biological target: SARS-CoV-2 spike (S) protein, Omicron BJ.1 (SARS-CoV-2) (UniProt P0DTC2)
[30] = biological target: SARS-CoV-2 spike (S) protein, Omicron BA.2 (SARS-CoV-2) (UniProt P0DTC2); remark: listed apart in the source
[31] = biological target: SARS-CoV-2 spike (S) protein, Omicron BA.2.3.20 (SARS-CoV-2) (UniProt P0DTC2)
[32] = biological target: SARS-CoV-2 spike (S) protein, Victoria strain (SARS-CoV-2) (UniProt P0DTC2); remark: listed apart in the source
[33] = biological target: SARS-CoV-2 spike (S) protein, Omicron BA.2.75 (SARS-CoV-2) (UniProt P0DTC2); remark: listed apart in the source
[34] = biological target: SARS-CoV-2 spike (S) protein, Omicron BA.4.6 (SARS-CoV-2) (UniProt P0DTC2)
[35] = biological target: SARS-CoV-2 spike (S) protein, Omicron BA.2.75.2 (SARS-CoV-2) (UniProt P0DTC2)
[36] = biological target: SARS-CoV-2 spike (S) protein, Omicron BA.4/5 (SARS-CoV-2) (UniProt P0DTC2); remark: listed apart in the source

Omi-42 (antibody), sequence (VH): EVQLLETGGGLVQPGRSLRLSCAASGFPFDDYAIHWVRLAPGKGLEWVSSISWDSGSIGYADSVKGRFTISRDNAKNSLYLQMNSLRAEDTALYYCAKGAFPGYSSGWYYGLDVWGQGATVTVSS
Omi-42 (antibody), sequence (VL): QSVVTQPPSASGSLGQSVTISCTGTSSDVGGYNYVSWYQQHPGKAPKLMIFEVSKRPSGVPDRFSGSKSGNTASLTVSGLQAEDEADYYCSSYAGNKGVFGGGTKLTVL
Omi-29 (antibody), sequence (VH): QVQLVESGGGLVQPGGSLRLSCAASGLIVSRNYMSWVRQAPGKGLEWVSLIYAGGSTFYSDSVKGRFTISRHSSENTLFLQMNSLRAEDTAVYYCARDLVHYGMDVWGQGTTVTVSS
Omi-29 (antibody), sequence (VL): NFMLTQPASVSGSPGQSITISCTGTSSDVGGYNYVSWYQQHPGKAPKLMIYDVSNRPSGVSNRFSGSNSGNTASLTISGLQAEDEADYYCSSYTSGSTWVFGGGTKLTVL

Substance: Omi-42 (antibody)
- pseudovirus neutralisation IC50 [1]: 0.006 µg/mL
- pseudovirus neutralisation IC50 [2]: 0.007 µg/mL
- Authentic virus-IC50 [3]: 0.024 µg/mL
- IC50, authentic virus neutralization [4]: 0.014 µg/mL
- pseudovirus neutralisation IC50 [5]: 0.021 µg/mL
- IC50, authentic virus neutralization [6]: 0.017 µg/mL
- IC50, pseudovirus neutralization [6]: 0.006 µg/mL
- Pseudovirus - IC50 [7]: 0.007 µg/mL
- Authentic virus-IC50 [8]: 0.013 µg/mL
- IC50, pseudovirus neutralization [9]: 0.025 µg/mL
- Pseudovirus - IC50 [10]: 0.021 µg/mL
- pseudovirus neutralisation IC50 [11]: 0.013 µg/mL
- Pseudovirus - IC50 [12]: 0.025 µg/mL
- Authentic virus-IC50 [13]: 0.019 µg/mL
- IC50, authentic virus neutralization [13]: 0.019 µg/mL
- pseudovirus neutralisation IC50 [14]: 0.025 µg/mL
- Authentic virus-IC50 [15]: 0.016 µg/mL
- IC50, authentic virus neutralization [15]: 0.016 µg/mL
- IC50, pseudovirus neutralization [15]: 0.013 µg/mL
- Pseudovirus - IC50 [15]: 0.013 µg/mL
- pseudovirus neutralisation IC50 [16]: 0.003 µg/mL
- IC50, authentic virus neutralization [17]: 0.011 µg/mL
- Authentic virus-IC50 [18]: 0.014 µg/mL
- IC50, authentic virus neutralization [19]: 0.013 µg/mL
- IC50, pseudovirus neutralization [20]: 0.007 µg/mL
- Authentic virus-IC50 [21]: 0.011 µg/mL
- IC50, authentic virus neutralization [22]: 0.031 µg/mL
- IC50, pseudovirus neutralization [22]: 0.021 µg/mL
- pseudovirus neutralisation IC50 [23]: 0.013 µg/mL
- Pseudovirus - IC50 [24]: 0.006 µg/mL
- IC50, pseudovirus neutralization [25]: 0.013 µg/mL
- IC50, authentic virus neutralization [26]: 0.024 µg/mL
- pseudovirus neutralisation IC50 [27]: 0.021 µg/mL
- pseudovirus neutralisation IC50 [28]: 0.003 µg/mL
- IC50, pseudoviral neutralization [29]: 0.01 µg/mL
- IC50, pseudoviral neutralization [30]: 0.021 µg/mL
- IC50, pseudoviral neutralization [31]: 0.018 µg/mL
- IC50, pseudoviral neutralization [32]: 0.013 µg/mL
- IC50, pseudoviral neutralization [33]: 0.003 µg/mL
- IC50, pseudoviral neutralization [34]: 0.01 µg/mL
- IC50, pseudoviral neutralization [35]: 0.011 µg/mL
- IC50, pseudoviral neutralization [36]: 0.013 µg/mL

Substance: Omi-29 (antibody)
- pseudovirus neutralisation IC50 [1]: 0.016 µg/mL
- pseudovirus neutralisation IC50 [2]: 0.017 µg/mL
- Authentic virus-IC50 [3]: 0.066 µg/mL
- IC50, authentic virus neutralization [4]: 0.036 µg/mL
- pseudovirus neutralisation IC50 [5]: 0.056 µg/mL
- IC50, authentic virus neutralization [6]: 0.052 µg/mL
- IC50, pseudovirus neutralization [6]: 0.016 µg/mL
- Pseudovirus - IC50 [7]: 0.017 µg/mL
- Authentic virus-IC50 [8]: 0.04 µg/mL
- IC50, pseudovirus neutralization [9]: 0.064 µg/mL
- Pseudovirus - IC50 [10]: 0.056 µg/mL
- pseudovirus neutralisation IC50 [11]: 0.014 µg/mL
- Pseudovirus - IC50 [12]: 0.064 µg/mL
- Authentic virus-IC50 [13]: 0.029 µg/mL
- IC50, authentic virus neutralization [13]: 0.029 µg/mL
- pseudovirus neutralisation IC50 [14]: 0.064 µg/mL
- Authentic virus-IC50 [15]: 0.044 µg/mL
- IC50, authentic virus neutralization [15]: 0.044 µg/mL
- IC50, pseudovirus neutralization [15]: 0.014 µg/mL
- Pseudovirus - IC50 [15]: 0.014 µg/mL
- pseudovirus neutralisation IC50 [16]: > 10 µg/mL
- IC50, authentic virus neutralization [17]: 0.048 µg/mL
- Authentic virus-IC50 [18]: 0.036 µg/mL
- IC50, authentic virus neutralization [19]: 0.04 µg/mL
- IC50, pseudovirus neutralization [20]: 0.017 µg/mL
- Authentic virus-IC50 [21]: 0.048 µg/mL
- IC50, authentic virus neutralization [22]: 0.192 µg/mL
- IC50, pseudovirus neutralization [22]: 0.056 µg/mL
- pseudovirus neutralisation IC50 [23]: 0.396 µg/mL
- Pseudovirus - IC50 [24]: 0.016 µg/mL
- IC50, pseudovirus neutralization [25]: 0.396 µg/mL
- IC50, authentic virus neutralization [26]: 0.066 µg/mL
- pseudovirus neutralisation IC50 [27]: 0.056 µg/mL
- pseudovirus neutralisation IC50 [28]: > 10 µg/mL
- IC50, pseudoviral neutralization [29]: 0.025 µg/mL
- IC50, pseudoviral neutralization [30]: 0.056 µg/mL
- IC50, pseudoviral neutralization [31]: > 10 µg/mL
- IC50, pseudoviral neutralization [32]: 0.014 µg/mL
- IC50, pseudoviral neutralization [33]: > 10 µg/mL
- IC50, pseudoviral neutralization [34]: 0.17 µg/mL
- IC50, pseudoviral neutralization [35]: > 10 µg/mL
- IC50, pseudoviral neutralization [36]: 0.396 µg/mL
